Reference: patent US20180250376A1 (US Dept. of Health and Human Services, published 2018)
Several values for one entry are separate records, joined by “and”; a condition that tells them apart may be missing. Identical values can stand only once.

B1: CMG2 on CHO CMG2-C4 cells (receptor)
chain: not shown
B2: TEM8 on CHO TEM8-T4 cells (receptor)
chain: not shown

Biological target: PA-U7 (Bacillus anthracis, UniProt P13423 30-764)

Binder	Kd
B1	8 nM and 12 nM
B2	25 nM and 35 nM
